Assay results from patent publication US20070160658A1, “Delivery system for diagnostic and therapeutic agents” (The Penn State Research Foundation, priority 2005, published 2007).

Target: T1, IL-13Rα2 (Homo sapiens, UniProt Q14627)
T1 sequence (Q14627 27-380): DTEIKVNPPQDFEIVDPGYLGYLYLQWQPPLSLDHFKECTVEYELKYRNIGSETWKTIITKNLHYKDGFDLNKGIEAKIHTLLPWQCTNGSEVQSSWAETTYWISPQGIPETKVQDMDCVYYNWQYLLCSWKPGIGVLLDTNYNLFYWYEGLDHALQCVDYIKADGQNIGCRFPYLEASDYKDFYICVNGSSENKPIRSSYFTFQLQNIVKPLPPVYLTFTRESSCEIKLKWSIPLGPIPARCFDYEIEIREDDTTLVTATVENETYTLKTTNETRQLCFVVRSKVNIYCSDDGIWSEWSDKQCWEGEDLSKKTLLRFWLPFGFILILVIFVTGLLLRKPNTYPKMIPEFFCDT
Assay: titered cytotoxicity neutralization assay against IL13-PE38QQR cytotoxin
Assay type: cell-based
Conditions: protein 100 ng/ml; cytotoxin IL13-PE38QQR fixed at 10 ng/ml
Protocol: Additionally, position K105 of this region of IL-13 is mutated into a variety of amino acids and the mutants' cytotoxic neutralization potential and binding affinity towards IL-13Rα2 is determined. […] In this titered cytotoxicity neutralization experiment, higher neutralization efficiency against the IL13-PE38QQR cytotoxin, for the mutant IL13.K105R is observed (Madhankumar A. B., Mintz, A., and Debinski, W. (2004) Neoplasia (New York) 6, 15-22). IL13.K105R is able to neutralize the cytotoxicity to 99% at 100 ng/ml concentration when compared with its blocking efficiency at 1000 ng/ml concentration. However, the wild type IL-13 and the mutant IL13.K106R and IL13.R109K have only 86.5%, 86.7% and 80.7% of the cytotoxicity neutralization efficiency with respect to their neutralization efficiency at 1000 ng/ml concentration. […] The high affinity mutant IL13.K105R is used as a ligand to conjugate to liposomes in order to better target the glioma associated IL-13Rα2 receptor.

Row | Substance | cytotoxicity neutralization efficiency with respect to neutralization efficiency at 1000 ng/ml [%]
1 | IL13.K106R: mutant of IL-13 at position 106 | 86.7
2 | wild type IL-13: human cytokine interleukin-13, wild type | 86.5
